{
  "source": "patent US20220088148A1",
  "about": "(HANMI PHARM, published 2022)",
  "note": "Bridges are numbered along the chain shown (N, C = ends). Where no end group is shown, it is not given here. [ ]: non-standard residue; d: D form. The star is where a group is joined. Acetyl(2-(4-imidazolyl)) = O=C(Cc1c[nH]cn1)*; Aib = CC(C)(N)C(=O)O",
  "data": [
    {"molecular_target": "human GCG receptor (human, UniProt P47871 26-477)", "sequence (P47871 26-477)": "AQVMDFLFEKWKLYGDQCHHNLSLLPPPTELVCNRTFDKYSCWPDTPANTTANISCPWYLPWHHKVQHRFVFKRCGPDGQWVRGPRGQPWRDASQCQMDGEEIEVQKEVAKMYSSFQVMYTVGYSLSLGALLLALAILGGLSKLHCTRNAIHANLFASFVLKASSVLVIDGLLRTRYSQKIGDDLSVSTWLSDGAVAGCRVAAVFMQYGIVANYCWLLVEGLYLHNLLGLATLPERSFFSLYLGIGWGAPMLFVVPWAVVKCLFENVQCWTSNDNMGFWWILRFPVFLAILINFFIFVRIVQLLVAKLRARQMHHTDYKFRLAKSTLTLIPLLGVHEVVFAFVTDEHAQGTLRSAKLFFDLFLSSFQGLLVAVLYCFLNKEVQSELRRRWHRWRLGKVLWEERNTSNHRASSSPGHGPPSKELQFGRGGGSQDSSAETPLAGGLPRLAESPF", "assay": "cell-based or functional assay", "units": {"In vitro activity (%) vs. Glucagon, cAMP EC50": "%"}, "values": [
      {"binder": "{Acetyl(2-(4-imidazolyl))}-[Aib]QGTFTSDYSIAMDEIHQKDFVNWLLAQKC (bridge 15-19)", "note": "[triple agonist of SEQ ID NO: 92]", "In vitro activity (%) vs. Glucagon, cAMP EC50": "< 0.1"},
      {"binder": "{Acetyl(2-(4-imidazolyl))}-[Aib]QGTFTSDYSKYLDEKRQKEFVNWLLAQKC (bridge 15-19)", "note": "[triple agonist of SEQ ID NO: 93]", "In vitro activity (%) vs. Glucagon, cAMP EC50": 0.3},
      {"binder": "{Acetyl(2-(4-imidazolyl))}-[Aib]QGTFTSDYSIAMDEIHQKDFVNWLLNTKC (bridge 15-19)", "note": "[triple agonist of SEQ ID NO: 94]", "In vitro activity (%) vs. Glucagon, cAMP EC50": "< 0.1"},
      {"binder": "H[Aib]QGTFTSDVSKYLDGQAAQEFVAWLLAGGGPSSGAPPPSC", "note": "[triple agonist of SEQ ID NO: 10]", "In vitro activity (%) vs. Glucagon, cAMP EC50": "< 0.1"},
      {"binder": "Y[Aib]QGTFTSDYSKYLDEKRAKEFVQWLLCHHPSSGQPPPS (bridge 16-20)", "note": "[triple agonist of SEQ ID NO: 95]", "In vitro activity (%) vs. Glucagon, cAMP EC50": 0.4},
      {"binder": "Y[Aib]QGTFTSDYSKYLDEKRAKEFVQWLLDHCPSSGQPPPS (bridge 16-20)", "note": "[triple agonist of SEQ ID NO: 96]", "In vitro activity (%) vs. Glucagon, cAMP EC50": 195},
      {"binder": "Y[Aib]QGTFTSDYSKYLDEKRAKEFVQWLLDCHPSSGQPPPS (bridge 16-20; ends not checked)", "note": "[triple agonist of SEQ ID NO: 97]", "In vitro activity (%) vs. Glucagon, cAMP EC50": 62.8},
      {"binder": "Y[Aib]QGTFTSDYSKALDEKAAKEFVNWLLDHHPSSGQPPPSC (bridge 16-20; ends not checked)", "note": "[triple agonist of SEQ ID NO: 98]", "In vitro activity (%) vs. Glucagon, cAMP EC50": 8.2},
      {"binder": "Y[Aib]QGTFTSDYSKALDEKAAKDFVNWLLDHHPSSGQPPPSC (bridge 16-20; ends not checked)", "note": "[triple agonist of SEQ ID NO: 99]", "In vitro activity (%) vs. Glucagon, cAMP EC50": 14.9},
      {"binder": "Y[Aib]QGTFTSDYSKALDEKAAKEFVQWLLDQHPSSGQPPPSC (bridge 16-20)", "note": "[triple agonist of SEQ ID NO: 100]", "In vitro activity (%) vs. Glucagon, cAMP EC50": 12.7},
      {"binder": "Y[Aib]QGTFTSDYSKALDEKAAKEFVNWLLDQHPSSGQPPPSC (bridge 16-20)", "note": "[triple agonist of SEQ ID NO: 101]", "In vitro activity (%) vs. Glucagon, cAMP EC50": 13.9},
      {"binder": "Y[Aib]QGTFTSDYSKALDEKAAKDFVNWLLDQHPSSGQPPPSC (bridge 16-20; ends not checked)", "note": "[triple agonist of SEQ ID NO: 102]", "In vitro activity (%) vs. Glucagon, cAMP EC50": 29.5}
    ]},
    {"molecular_target": "human GLP-1 receptor (human, UniProt P43220 24-463)", "assay": "cell-based or functional assay", "units": {"In vitro activity (%) vs. GLP-1, cAMP EC50": "%"}, "values": [
      {"binder": "{Acetyl(2-(4-imidazolyl))}-[Aib]QGTFTSDYSIAMDEIHQKDFVNWLLAQKC (bridge 15-19)", "note": "[triple agonist of SEQ ID NO: 92]", "In vitro activity (%) vs. GLP-1, cAMP EC50": 0.8},
      {"binder": "{Acetyl(2-(4-imidazolyl))}-[Aib]QGTFTSDYSKYLDEKRQKEFVNWLLAQKC (bridge 15-19)", "note": "[triple agonist of SEQ ID NO: 93]", "In vitro activity (%) vs. GLP-1, cAMP EC50": 5.7},
      {"binder": "{Acetyl(2-(4-imidazolyl))}-[Aib]QGTFTSDYSIAMDEIHQKDFVNWLLNTKC (bridge 15-19)", "note": "[triple agonist of SEQ ID NO: 94]", "In vitro activity (%) vs. GLP-1, cAMP EC50": 0.5},
      {"binder": "H[Aib]QGTFTSDVSKYLDGQAAQEFVAWLLAGGGPSSGAPPPSC", "note": "[triple agonist of SEQ ID NO: 10]", "In vitro activity (%) vs. GLP-1, cAMP EC50": 46},
      {"binder": "Y[Aib]QGTFTSDYSKYLDEKRAKEFVQWLLCHHPSSGQPPPS (bridge 16-20)", "note": "[triple agonist of SEQ ID NO: 95]", "In vitro activity (%) vs. GLP-1, cAMP EC50": 2.1},
      {"binder": "Y[Aib]QGTFTSDYSKYLDEKRAKEFVQWLLDHCPSSGQPPPS (bridge 16-20)", "note": "[triple agonist of SEQ ID NO: 96]", "In vitro activity (%) vs. GLP-1, cAMP EC50": 34.4},
      {"binder": "Y[Aib]QGTFTSDYSKYLDEKRAKEFVQWLLDCHPSSGQPPPS (bridge 16-20; ends not checked)", "note": "[triple agonist of SEQ ID NO: 97]", "In vitro activity (%) vs. GLP-1, cAMP EC50": 10.5},
      {"binder": "Y[Aib]QGTFTSDYSKALDEKAAKEFVNWLLDHHPSSGQPPPSC (bridge 16-20; ends not checked)", "note": "[triple agonist of SEQ ID NO: 98]", "In vitro activity (%) vs. GLP-1, cAMP EC50": 28.1},
      {"binder": "Y[Aib]QGTFTSDYSKALDEKAAKDFVNWLLDHHPSSGQPPPSC (bridge 16-20; ends not checked)", "note": "[triple agonist of SEQ ID NO: 99]", "In vitro activity (%) vs. GLP-1, cAMP EC50": 20.9},
      {"binder": "Y[Aib]QGTFTSDYSKALDEKAAKEFVQWLLDQHPSSGQPPPSC (bridge 16-20)", "note": "[triple agonist of SEQ ID NO: 100]", "In vitro activity (%) vs. GLP-1, cAMP EC50": 42.2},
      {"binder": "Y[Aib]QGTFTSDYSKALDEKAAKEFVNWLLDQHPSSGQPPPSC (bridge 16-20)", "note": "[triple agonist of SEQ ID NO: 101]", "In vitro activity (%) vs. GLP-1, cAMP EC50": 23.2},
      {"binder": "Y[Aib]QGTFTSDYSKALDEKAAKDFVNWLLDQHPSSGQPPPSC (bridge 16-20; ends not checked)", "note": "[triple agonist of SEQ ID NO: 102]", "In vitro activity (%) vs. GLP-1, cAMP EC50": 23.3}
    ]},
    {"molecular_target": "T1, human GIP receptor (human, UniProt P48546 22-466)", "T1 sequence (looked up)": "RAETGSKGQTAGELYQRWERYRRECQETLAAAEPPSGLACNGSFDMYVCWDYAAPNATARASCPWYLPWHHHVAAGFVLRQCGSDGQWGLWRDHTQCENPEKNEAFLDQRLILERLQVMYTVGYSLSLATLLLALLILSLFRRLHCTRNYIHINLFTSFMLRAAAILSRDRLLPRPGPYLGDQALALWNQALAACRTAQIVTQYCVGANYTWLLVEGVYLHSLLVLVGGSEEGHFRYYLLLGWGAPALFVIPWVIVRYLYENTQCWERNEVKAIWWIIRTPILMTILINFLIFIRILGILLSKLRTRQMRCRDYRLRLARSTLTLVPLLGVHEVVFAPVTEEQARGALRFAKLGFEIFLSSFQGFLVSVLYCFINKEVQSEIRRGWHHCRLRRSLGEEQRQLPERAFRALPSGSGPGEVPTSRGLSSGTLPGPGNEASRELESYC", "assay": "cell-based or functional assay", "units": {"In vitro activity (%) vs. GIP, cAMP EC50": "%"}, "values": [
      {"binder": "{Acetyl(2-(4-imidazolyl))}-[Aib]QGTFTSDYSIAMDEIHQKDFVNWLLAQKC (bridge 15-19)", "note": "[triple agonist of SEQ ID NO: 92]", "In vitro activity (%) vs. GIP, cAMP EC50": 0.4},
      {"binder": "{Acetyl(2-(4-imidazolyl))}-[Aib]QGTFTSDYSKYLDEKRQKEFVNWLLAQKC (bridge 15-19)", "note": "[triple agonist of SEQ ID NO: 93]", "In vitro activity (%) vs. GIP, cAMP EC50": 0.7},
      {"binder": "{Acetyl(2-(4-imidazolyl))}-[Aib]QGTFTSDYSIAMDEIHQKDFVNWLLNTKC (bridge 15-19)", "note": "[triple agonist of SEQ ID NO: 94]", "In vitro activity (%) vs. GIP, cAMP EC50": "< 0.1"},
      {"binder": "H[Aib]QGTFTSDVSKYLDGQAAQEFVAWLLAGGGPSSGAPPPSC", "note": "[triple agonist of SEQ ID NO: 10]", "In vitro activity (%) vs. GIP, cAMP EC50": "< 0.1"},
      {"binder": "Y[Aib]QGTFTSDYSKYLDEKRAKEFVQWLLCHHPSSGQPPPS (bridge 16-20)", "note": "[triple agonist of SEQ ID NO: 95]", "In vitro activity (%) vs. GIP, cAMP EC50": "< 0.1"},
      {"binder": "Y[Aib]QGTFTSDYSKYLDEKRAKEFVQWLLDHCPSSGQPPPS (bridge 16-20)", "note": "[triple agonist of SEQ ID NO: 96]", "In vitro activity (%) vs. GIP, cAMP EC50": 5.2},
      {"binder": "Y[Aib]QGTFTSDYSKYLDEKRAKEFVQWLLDCHPSSGQPPPS (bridge 16-20; ends not checked)", "note": "[triple agonist of SEQ ID NO: 97]", "In vitro activity (%) vs. GIP, cAMP EC50": 2.6},
      {"binder": "Y[Aib]QGTFTSDYSKALDEKAAKEFVNWLLDHHPSSGQPPPSC (bridge 16-20; ends not checked)", "note": "[triple agonist of SEQ ID NO: 98]", "In vitro activity (%) vs. GIP, cAMP EC50": 47.1},
      {"binder": "Y[Aib]QGTFTSDYSKALDEKAAKDFVNWLLDHHPSSGQPPPSC (bridge 16-20; ends not checked)", "note": "[triple agonist of SEQ ID NO: 99]", "In vitro activity (%) vs. GIP, cAMP EC50": 57.7},
      {"binder": "Y[Aib]QGTFTSDYSKALDEKAAKEFVQWLLDQHPSSGQPPPSC (bridge 16-20)", "note": "[triple agonist of SEQ ID NO: 100]", "In vitro activity (%) vs. GIP, cAMP EC50": 118},
      {"binder": "Y[Aib]QGTFTSDYSKALDEKAAKEFVNWLLDQHPSSGQPPPSC (bridge 16-20)", "note": "[triple agonist of SEQ ID NO: 101]", "In vitro activity (%) vs. GIP, cAMP EC50": 40.1},
      {"binder": "Y[Aib]QGTFTSDYSKALDEKAAKDFVNWLLDQHPSSGQPPPSC (bridge 16-20; ends not checked)", "note": "[triple agonist of SEQ ID NO: 102]", "In vitro activity (%) vs. GIP, cAMP EC50": 58}
    ]}
  ]
}
